Experimental data taken from the supplement of paper PMC10567573.

B1: CDS2 (parent)
chain: IHSIALSTFASLIGPFGGFFASGF
B2: MLL5 (parent)
chain: EQIAERKRKMVSWEASSLGLVTAA

Variants of: B1
Assay: protein stability index of a GFP-peptide fusion (GPS, HEK-293T) (PSI 1-6); higher = more stable
Conditions: c terminus: a fixed tail appended
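Note: lentivirally expressed fusions sorted by FACS into six bins by GFP to DsRed ratio, PSI derived from sequencing read proportions per bin multiplied by bin number.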

Row | Variant | protein stability index
1 | A21V | 2.06
2 | A21Y | 3.42
3 | A21N | 2.8
4 | A21P | 2.4
5 | A21D | 4.2
6 | A21F | 2.83
7 | A21E | 2.24
8 | A21Q | 3.25
9 | A21H | 4.77
10 | A21K | 2.22
11 | A21I | 3
12 | A21T | 3.65
13 | A21R | 2.9
14 | A21M | 2.69
15 | A21W | 2.61
16 | A21L | 2.75
17 | A21C | 3.33
18 | A21S | 2.54
19 | G23V | 2.14
20 | G23Q | 2.79
21 | G23T | 2.53
22 | G23I | 1.59

Row | Variant | protein stability index
23 | G23C | 2.54
24 | G23N | 3.46
25 | G23H | 2.2
26 | G23K | 2.05
27 | G23M | 3.23
28 | G23P | 2.73
29 | G23L | 1.42
30 | G23Y | 2.63
31 | G23D | 2.37
32 | G23F | 2.67
33 | G23E | 4.01
34 | G23S | 1.46
35 | F20P | 3.39
36 | F20H | 2.66
37 | F20V | 3.06
38 | F20K | 2.68
39 | F20Y | 1.92
40 | F20R | 2.86
41 | F20N | 2.68
42 | F20C | 4.04
43 | F20S | 2.52
44 | F20M | 2.88

Row | Variant | protein stability index
45 | F20I | 2.13
46 | F20T | 3.03
47 | F20A | 1.97
48 | F20L | 2.98
49 | F19G | 3.81
50 | F19V | 2.86
51 | F19E | 3.01
52 | F19H | 2.47
53 | F19C | 2.63
54 | F19W | 3.48
55 | F19Q | 3.63
56 | F19L | 3.19
57 | F19N | 3.42
58 | F19K | 3.44
59 | F19Y | 4.14
60 | F19A | 2.87
61 | F19S | 2.78
62 | F19D | 3.49
63 | F19T | 3.17
64 | F19P | 2.01
65 | F19R | 2.72
66 | F19I | 2.97

Row | Variant | protein stability index
67 | F19M | 4.02
68 | G18W | 2.32
69 | G18S | 2.36
70 | G18Y | 3.62
71 | G18T | 3.73
72 | G18R | 3.42
73 | G18V | 3.83
74 | S22T | 2.96
75 | S22F | 3.51
76 | S22D | 2.53
77 | S22H | 2.03
78 | S22K | 1.71
79 | S22W | 2.44
80 | S22M | 3.08
81 | S22G | 3.59
82 | S22R | 3.24
83 | S22N | 2.57
84 | S22I | 2.2
85 | S22E | 2.95
86 | S22Q | 2.57
87 | S22L | 2.7
88 | S22V | 2.54

Row | Variant | protein stability index
89 | S22C | 2.86
90 | S22P | 3.67
91 | F24M | 2.8
92 | F24A | 2.18
93 | F24S | 2.63
94 | F24L | 3.68
95 | F24Q | 2.45
96 | F24W | 3.66
97 | F24H | 3.27
98 | F24V | 3.32
99 | F24D | 3.08
100 | F24G | 4.4
101 | F24N | 3.11
102 | F24T | 3.42
103 | F24I | 2.91
104 | F24P | 3.79
105 | F24C | 4.83
106 | F24Y | 2.52

Variants of: B2
Assay: as above
Conditions: c terminus: a fixed tail appended

Row | Variant | protein stability index
107 | I3Y | 3.14
108 | I3T | 3.88
109 | I3C | 2.46
110 | M10H | 3.44
111 | V21G | 3.4
112 | V21A | 3.23
113 | V21M | 3.32
114 | V21F | 2.38
115 | W13T | 3.77
116 | L18K | 3.86
117 | K9L | 2.27
118 | K9R | 3.06
119 | K9I | 2.34
120 | K9Q | 2.59
121 | K9A | 2.52
122 | A23N | 2.31
123 | A23R | 2.63
124 | K7C | 2.19
125 | K7E | 4.03
126 | K7Q | 3.21
127 | G19N | 2.95

Row | Variant | protein stability index
128 | G19V | 2.9
129 | G19C | 2.38
130 | G19D | 3.32
131 | G19T | 3.25
132 | L20Q | 3.47
133 | E5H | 2.12
134 | A24S | 3.57
135 | A24V | 3.04
136 | A24Y | 2.1
137 | E14P | 2.44
138 | E14R | 2.31
139 | E14C | 2.49
140 | E14T | 3
141 | V11P | 3.55
142 | V11G | 3.39
143 | V11C | 2.87
144 | A15V | 2.56
145 | A15Y | 2.26
146 | A15N | 2.67
147 | A15S | 2.94
148 | R8P | 3.25

Row | Variant | protein stability index
149 | R8T | 3.89
150 | R8M | 3.17
151 | S17Q | 3.08
152 | S17K | 3.54
153 | S17V | 2.31
154 | S17L | 3.15
155 | E1I | 2.78
156 | E1T | 2.67
157 | E1N | 3.06
158 | Q2N | 2.37
159 | Q2S | 2.55
160 | R6T | 3.54
161 | R6L | 2.65
162 | R6N | 3
163 | R6W | 2.09
164 | S16Q | 3.05
165 | A4L | 2.95
166 | A4Q | 2.34
167 | A4P | 3.85
